Assay results: publication PMC10320395, “Molecular insights into LINC complex architecture through the crystal structure of a luminal trimeric coiled-coil domain of SUN1” (Frontiers in Cell and Developmental Biology, 2023)
“And” between values parts separate entries of the source, which are not always exact repeats. Equal values may be shown once. Where no end group is shown, it is not given here.

How the values were obtained:
[1] = target: the molecule itself; test: SEC-MALS; cleaved SUN1 constructs at > 5 mg/mL; Superdex 200 Increase 10/300 GL, 20 mM HEPES pH 7.5, 150 mM KCl, 2 mM DTT
[2] = target: the molecule itself; test: crystal structure; SUN1 362–401 at 3.5 mg/mL, sitting drops, 20°C; spacegroup P2(1), a SUN1 trimer in the asymmetric unit; 2.07 Å
[3] = target: the molecule itself; test: SEC-MALS; MBP-SUN1 α1 at 20 mg/mL and 1 mg/mL after purification, and at 20 mg/mL after over-night incubation with 2 mM zinc acetate (trimer stabilised); Superdex 200 Increase 10/300 GL, 20 mM HEPES pH 7.5, 150 mM KCl, 2 mM DTT; trimer to dimers to monomers

B1: SUN1 α1-α2 (human SUN1 amino-acids 362–584) (domain or fragment, UniProt O94901 362-584, looked up)
chain: MSGVEQQVASLSGQCHHHGENLRELTTLLQKLQARVDQMEGGAAGPSASVRDAVGQPPRETDFMAFHQEHEVRMSHLEDILGKLREKSEAIQKELEQTKQKTISAVGEQLLPTVEHLQLELDQLKSELSSWRHVKTGCETVDAVQERVDVQVREMVKLLFSEDQQGGSLEQLLQRFSSQFVSKGDLQTMLRDLQLQILRNVTHHVSVTKQLPTSEAVVSAVSE
notes: human SUN1, Uniprot O94901, amino-acids 362–584 (α1 and α2 coiled-coils joined by their natural linker); Theoretical trimer 75 kDa; source: E. coli BL21 (DE3), purified (Ni-NTA, amylose, ion exchange, TEV cleavage, ion exchange, SEC); not shown: His, N-terminal, cleaved; MBP, N-terminal, cleaved
[1]
  stoichiometry N: 3

B2: SUN1 α1-α2-SUN (entire structured luminal domain of human SUN1, amino-acids 362–785) (domain or fragment, UniProt O94901 362-785, looked up)
chain: MSGVEQQVASLSGQCHHHGENLRELTTLLQKLQARVDQMEGGAAGPSASVRDAVGQPPRETDFMAFHQEHEVRMSHLEDILGKLREKSEAIQKELEQTKQKTISAVGEQLLPTVEHLQLELDQLKSELSSWRHVKTGCETVDAVQERVDVQVREMVKLLFSEDQQGGSLEQLLQRFSSQFVSKGDLQTMLRDLQLQILRNVTHHVSVTKQLPTSEAVVSAVSEAGASGITEAQARAIVNSALKLYSQDKTGMVDFALESGGGSILSTRCSETYETKTALMSLFGIPLWYFSQSPRVVIQPDIYPGNCWAFKGSQGYLVVRLSMMIHPAAFTLEHIPKTLSPTGNISSAPKDFAVYGLENEYQEEGQLLGQFTYDQDGESLQMFQALKRPDDTAFQIVELRIFSNWGHPEYTCLYRFRVHGEPVK
notes: human SUN1, Uniprot O94901, amino-acids 362–785 (α1, α2 and the C-terminal SUN domain); Theoretical trimer 142 kDa; source: E. coli BL21 (DE3), purified (Ni-NTA, amylose, ion exchange, TEV cleavage, ion exchange, SEC); not shown: His, N-terminal, cleaved; MBP, N-terminal, cleaved
[1]
  stoichiometry N: 3

B3: SUN1 α1 (luminal coiled-coil domain of human SUN1, amino-acids 362–401) (domain or fragment, UniProt O94901 362-401, looked up)
chain: MSGVEQQVASLSGQCHHHGENLRELTTLLQKLQARVDQME
modifications: also: C376 partly oxidised to S-hydroperoxycysteine in crystal chain B, occupancy 0.62
notes: human SUN1, Uniprot O94901, amino-acids 362–401 (α1 coiled-coil domain of the luminal region); Expressed from pMAT11 as a TEV-cleavable His-MBP fusion; tags removed with TEV protease; About one zinc ion per trimer was found in solution; the crystal lacked zinc; also called SUN1 362–401; source: E. coli BL21 (DE3), purified (Ni-NTA, amylose, ion exchange, TEV cleavage, ion exchange, SEC); not …
[2]
  binding result: binds

B4: MBP-SUN1 α1 (MBP fusion of human SUN1 amino-acids 362–401) (domain or fragment, UniProt O94901 362-401, looked up)
chain: B3 chain
notes: human SUN1, Uniprot O94901, amino-acids 362–401 (α1 coiled-coil domain); The uncleaved His-MBP fusion from pMAT11, used to give greater molecular mass resolution in SEC-MALS; theoretical monomer 49 kDa; The His tag probably stays with the MBP (surmise); source: E. coli BL21 (DE3), purified (Ni-NTA, amylose, ion exchange); not shown: MBP, N-terminal, kept
[3]
  stoichiometry N: 3 and 2

B5: SUN1 α2 (second luminal coiled-coil domain of human SUN1, amino-acids 421–584) (domain or fragment, UniProt O94901 421-584, looked up)
chain: ETDFMAFHQEHEVRMSHLEDILGKLREKSEAIQKELEQTKQKTISAVGEQLLPTVEHLQLELDQLKSELSSWRHVKTGCETVDAVQERVDVQVREMVKLLFSEDQQGGSLEQLLQRFSSQFVSKGDLQTMLRDLQLQILRNVTHHVSVTKQLPTSEAVVSAVSE
notes: human SUN1, Uniprot O94901, amino-acids 421–584 (α2 coiled-coil domain); Theoretical monomer 19 kDa, so the cleaved protein stood in SEC-MALS; source: E. coli BL21 (DE3), purified (Ni-NTA, amylose, ion exchange, TEV cleavage, ion exchange, SEC); not shown: His, N-terminal, cleaved; MBP, N-terminal, cleaved
[1]
  stoichiometry N: 3 and 2
